In paper PMC9775280, “A Simple Label-Free Aptamer-Based Electrochemical Biosensor for the Sensitive Detection of C-Reactive Proteins”:

Legend:
[1] = target: B-type brain natriuretic peptide (BNP) (UniProt P16860 103-134); test: electrochemical aptasensor (DPV); 1 ng/mL; current below blank, attributed to physical adsorption; PBS as solvent, 100 uL sample; DPV -0.6 to 0 V, peak about -0.4 V; BSA-blocked electrode; pH, salt and assay temperature not stated; details: protein: commercial
PSA (PSA standard) = PSA (PSA standard) (UniProt P07288 25-261); test: as above; details: protein: commercial
Chain of PSA (PSA standard) (P07288 25-261): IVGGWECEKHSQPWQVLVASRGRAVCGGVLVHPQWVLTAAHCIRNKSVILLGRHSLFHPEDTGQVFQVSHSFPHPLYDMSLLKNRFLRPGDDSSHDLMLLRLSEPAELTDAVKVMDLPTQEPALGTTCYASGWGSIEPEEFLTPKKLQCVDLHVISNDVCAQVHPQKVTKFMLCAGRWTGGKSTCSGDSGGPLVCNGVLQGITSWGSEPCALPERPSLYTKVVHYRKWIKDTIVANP

C-reactive protein (CRP) = target: T1, C-reactive protein (CRP) (UniProt P02741 19-224); test: electrochemical aptasensor (DPV); 1 ng/mL CRP; aptamer immobilized on SPE/AuNPs/GO-COOH, BSA-blocked; linear range 0.001-100 ng/mL, LOD 2.941e-4 ng/mL; PBS as solvent, 100 uL sample; DPV -0.6 to 0 V, peak about -0.4 V; BSA-blocked electrode; pH, salt and assay temperature not stated; details: protein: commercial; chain copies: 5
T1 sequence: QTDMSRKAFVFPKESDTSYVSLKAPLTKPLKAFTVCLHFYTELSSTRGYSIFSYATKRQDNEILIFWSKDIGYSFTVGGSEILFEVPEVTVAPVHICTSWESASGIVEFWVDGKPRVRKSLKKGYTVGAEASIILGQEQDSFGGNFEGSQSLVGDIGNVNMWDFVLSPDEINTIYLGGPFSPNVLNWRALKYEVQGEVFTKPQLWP

Chain of B-type brain natriuretic peptide (BNP) (P16860 103-134): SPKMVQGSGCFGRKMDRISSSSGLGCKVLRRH

Which results are given for GCCTGTAAGGTGGTCGGTGTGGCGAGTGTGTTAGGAGAGATTGC (ssDNA, 5'-NH2) [CRP aptamer]?
binding result [1]: no binding; binding result (PSA (PSA standard)): no binding; binding result (C-reactive protein (CRP)): binds
